In the DeepSol protein solubility set:

Test: soluble on expression in E. coli; label from the status in PepcDB or PDB records

Question: For “KAHGNFPVYRNTDVTFLPTGEAFFEKMKEELLKAKKYIFLEFFIIDEGIMWGEILSILEQKVEEGVEVRILYDGMIEITKLSFDYTKRLEKIGIKAKAFSPISPFISTYYNYRDHRKIVVIDGVVGMTGGVNLADEYINHIELFGHWKDSGIMLKGKAVDSFLLLFLQMWSITEEKMLVAPYLGVHDDLVENEGYVIPYGDSPLDTDKVGENV”, which “soluble on expression in E. coli” value is on record?
Answer: not soluble

Question: Which “soluble on expression in E. coli” value does the source give for “MGSDKIHHHHHHMIINRSCLKEFAEKVHFLPSSLTKSDLLTDPFRLHQENELGIYYSPHNEFINRDASLVIAGITPGFSQMKTAYETAAESLLQGGTLEQMAVDTKIAAGFSGSMRHNLITMLDLCGLPQAFGIQSAAKLFGELRHMLHTTSVIKYPVFIQQKNYTGYKPAITHSPILSTYAFGHFPAELNHVTGPALLIPLGKAAETVCETLIRQHSLQNLICLNGFPHPSGANGHRLKQFSKNKEQLERQIRSFAALVDFAIEKRK” here?
Answer: not soluble

Question: Which “soluble on expression in E. coli” value does the source give for “MGYIEELRKIVGTRPLILAGVGVAVIDDYGRILLQKRRDGLWGVPGGLLELGESTEEAARREVLEETGLEIGELELIDVFSGQKYFVRLPNGDQYYPVTIVYCTRDIRGGELGEDGKESLEVKFFFLHELPNELSPLFQDLVEHYFGS” here?
Answer: soluble

Question: For “MGHHHHHHSHKPIKVEKTVTINKPADELYRYWHNFENLPTFMKHLKSVKVYNEKRSHWIANAPLGNSVEWDADILEDRENEFISWASAEGADVENSGFVRFQKAPGDVPGQAASRLRGTEVKVVLEYNLPGGALAAVVAKLFGEEP”, which “soluble on expression in E. coli” value is on record?
Answer: not soluble

Question: Which “soluble on expression in E. coli” value does the source give for “MAHHHHHHMDLFSIASNLQQIAIGGVNFVNSKLRKKSATAECNYITYIVIGENEKQPYDTNIFFLPFKICGKIKLEEFKEFFPFKDNVIFRFKIPVSDLIDVINEGIVNHAPLMREDSNERNQVKHIISDENEIKNILRQDQFSHLWVDITSEEAYIPFYNGNIVVKVLFI” here?
Answer: not soluble

Question: For “MGSDKIHHHHHHMEMRFFVLGAGSWGTVFAQMLHENGEEVILWARRKEIVDLINVSHTSPYVEESKITVRATNDLEEIKKEDILVIAIPVQYIREHLLRLPVKPSMVLNLSKGIEIKTGKRVSEIVEEILGCPYAVLSGPSHAEEVAKKLPTAVTLAGENSKELQKRISTEYFRVYTCEDVVGVEIAGALKNVIAIAAGILDGFGGWDNAKAALETRGIYEIARFGMFFGADQKTFMGLAGIGDLMVTCNSRYSRNRRFGELIARGFNPLKLLESSNQVVEGAFTVKAVMKIAKENKIDMPISEEVYRVVYEGKPPLQSMRDLMRRSLKDEFWASVVDSSL”, which “soluble on expression in E. coli” value is on record?
Answer: not soluble

Question: Which “soluble on expression in E. coli” value does the source give for “MTHIAFGHYLHSKRWYTVQVLSKSEDAMSTQLDPTQLAIEFLRRDQSNLSPAQYLKRLKQLELEFADLLTLSSAELKEEIYFAWRLGVH” here?
Answer: not soluble

Question: With “MKTRESSVGLKFRKFNRFYTNVLGFLNEHIYDSPFSLTETRILFEIYNTPNCTAKALQDKLGLDRGYVSRIVKQFEKEDLIYKQRSKDDARHHYIFVTETGKTIYKKLEEKANEQVELMLKVINQKEQHKLAEAMAEIEAILSQSLSARASEISIRDYFLSEDLQLLIEKQRQFYAEAHGWDDTFLAYLQETFDADIEKIWIAESGGKFAGSVGLVKHDEKTVQLRWFLVDADFRGRGLGTQLLEHLVAYCQDMKFDRIFLWTVSTMAEARPLYKKFGFRISEVKQEAPLWGQQLTEERWDLELS” as the sequence, how does the “soluble on expression in E. coli” value read?
Answer: soluble

Question: For “MGSDKIHHHHHHMTPIPFYVPVGNECELFETAWQRRLPLLLKGPTGCGKTRFVTHMAARLQRPLFTVSCHDDLTAADLTGRFLIKGGETVWVDGPLTRAIREGGICYLDEIVEARKDVTVVLHPLTDDRRMLPLERTNEILHAPDTFMLVVSYNPGYQNILKSLKPSTRQRFVALSFNFPPPEIELEIIASESGLARDRCTALVNLATRLRLLKDVDLEESVSTRLLVYCATLMAAGLDPYQAAQAALVEPLSDETEVQQGLLELIHATFG”, which “soluble on expression in E. coli” value is on record?
Answer: not soluble

Question: For “MADAAKNALSSIFDKTKDVLSTAADATKGYASQAQQAIGKIIPGANHESDPNAAVAAAQAASGQPVDTTGGVPPAQ”, which “soluble on expression in E. coli” value is on record?
Answer: not soluble

Question: With “MAHHHHHHMPPPNTLQRGSEWVAQCMRDIKAAKLQQTVRPYSNGTPAGEALPVRTIVATSRIHRGEHLGTVKRDSIMTGERASQLLRRACRGGPSQTDVTAATGLQPLAAQRFDDLVSRISSLPSALSVPPHLLLSRDALLVTVALYLTRSPLNAGVLPAESPLRAWADALPRRPPPMGALLRRSFLSHDDVEPLPRRLRLGQRTKEVAPGEDVAAASTELMVQAVEQGELELADLRRPEMETALTPTVLTNYFKGRMSALTQRQRQSQRARGGVAEAEEGALHLFMTWERQLQTHFVDALLPVLLLPSCGSCASNLEAVQDSAAWLGEESALRWAHFMTRSRAVNLNWRHPGPPQLSIVPLVDMLNHTSRANANVVYQREDSGDVCVTASRTIEAGEELVLRYNHIGQRGCLFGDLPRPSKPTAEHERGRLSGKAAAVADEVHRIEKRQYWELYACDEDEEAVQHTGHTPSTSFTASTRCGTFDPAPPAAVGQQEMEQEVQWLWRFGFLRSNEEKNREAALLWSRGLRSRIAHLTDVRRKGRPGEFVLGVPEGLQHLREQREQLERNRYNNKKVFPPQQL” as the sequence, how does the “soluble on expression in E. coli” value read?
Answer: not soluble

Question: Which “soluble on expression in E. coli” value does the source give for “MNLLETVEQDTMPTHYKQMTQVEMIARVTEIKAQLGENLFIPCHHYQKDEVVPFADAIGDSLQLAQIAAQNKKAKHIVFCGVHFMAETADMLTTSEQIVTLPDMRAGCSMADMADIHQLTNAWPKLQTLFGDTILPVTYINSTAAIKSFVGEHGGTTVTSSNATKIVSWALEQKERIFFLPDQHLGRNTAFELGIPLEHMAIWNPIKNELEYEGNLDDCKVILWKGYCSVHQHFTVKNIENIRKNHPNMRIIVHPECTHEVVSLADDSGSTKKIVTEINNAAPGTEWAVGTEANLVGRIIQENPDKKIVSLNPFMCPCMTMNRIDLPHLLWTLEAIQNGEKRNQIKVDEQTTKFALKALERMLQLS” here?
Answer: not soluble

Question: For “MRCVYCHNAQLQEFAPGAVGVDDLVGLARRRIGLIDAVVISGGEPTAVPGLAEAICRIHDLGLPVGLHTCGYAPKRLATLVSQPESRPDWIGLDIKALPRHMHEITGCSPRVAQSCWESLAIIDAVGIEVQTRTTLWPGSVIEQNLRELEVMVAAQGHELVVQQARF”, which “soluble on expression in E. coli” value is on record?
Answer: not soluble

Question: For “MGSDKIHHHHHHVPATYPLSSCIEWQFAEAGDLAARVRAAKADGFDLVEFHLWRDKPVEAIGAALADTGVALTGVCVDPRRSIVDPAERAEMVEAVRETIAATAPLGKPPLIVASGFRVEGMSEEDHFANAVAALKQAAALAEDAGVTLLLEPLNTRLFSAMYLVSTTLGLDLVEAVGSPNLRLLYDVWHSAVMGEDIADVLAGRIGLVAHVQVADMEDRNEPGTGTVDWAHVMNTLKSLGYQGSIGMEYFPTLPMDQSLKLTRETLAL”, which “soluble on expression in E. coli” value is on record?
Answer: not soluble

Question: Which “soluble on expression in E. coli” value does the source give for “MSLNVVNSIFSKLSIAPMIDWTNSPFRTLMRLLAPNALLYTEMQTTGAVQNNPDRALYFNSVEHPLAIQLGGADKSALVKCAIIAEQKGFNEINLNLGCPSDKVQAGRFGACLMKEPEHVADCIRAIKQVVGIPVTAKTRIGIDNQDSYEFFRSFSLHLVEAGCDKLIIHARKAWLNGLNPKQNRTIPPVNYDYVYELKKEIPHIFITINGNILTVEEINNHLKHVDGVMLGRLACDNPYQIAEIHQALYPEFIKIKRSQLLMNYLDYWFDQSRANEGHHHHHH” here?
Answer: not soluble

Question: Which “soluble on expression in E. coli” value does the source give for “MGSDKIHHHHHHMREKIDALTQNLNRTIVGKTEAIRLVLVALLGGGHALLEDVPGVGKTLLAKSLARSLDGTFQRLQCTPDLLPTDITGTNIWNPKSGEFSFMPGPVFANVVLADEINRATPRTQSALLEVMEEQQVTVDGVSRTVPHPFFVIATQNPVEYQGTFPLPEAQMDRFMLSLSLGYPGVDEELEMLQNLQHGIKVGDLQPCLTLAEVAELREICSQVKVETVLQQYILELVRSTRQDEEITLGVSPRGTVALHKATQALAFLLGRDYAIPDDVKFLAPHVLCHRLIARGGRSARSIVDRLLRSLPIP” here?
Answer: not soluble

Question: Which “soluble on expression in E. coli” value does the source give for “GGGGGGMVNLQRARTPIHRVGFARPPLHLAIPHPATTTPCAMSAESLVLALVLLALCGAVMLRWISQRHAHDSAVGDKALTHKGRLRLSQNASGSAAGRCGSDDGNDSDQGGVDDDNGGAVGRRRRGAGGVLRRRRPQERGGNARRGGSDGDENSYDGDDAGGIPETDANGVKLTRLQRKKLAKEREREERRQAQEAALEAQRQRMDVNELRDAEAALREEELKAAEEAALQQLRRDKKKAEDEEYAKWVSHIGVEERGELGDEERERQTRMQSFLLDRAAQVQARARRSAAGAKSSPSEEECIHVLILQTAARDLKVSVEELVSTIEQLSQVDKVHGVFDDRGKYVFIAPEQFPLLAQFIRLRGRVSVQEFTRECNRVVMQS” here?
Answer: soluble

Question: For “MGSDKIHHHHHHMNIRTLAAYMVFQCVFLISWSQDLKRVQKTITTLTSKTYHGRGAASNGDGLAAAYLEKQYKETGLKPVDTNFLQPFTYAINTFPGKMKLKSNLGVFKPGIDYIVKSTSGPGKGTCDVYLVDTLIFTDDGKLKEFLQLDVTALVVVYPKKYFKEFTASTPDLLKQLYSAAAIIELQDKKLTMALADQSFGTPVFEVLTTSFSPDIKTISFEIENELIKKHQANNVIGMIEGRSKKDSFIVLTAHYDHLGTLGRKAYFPGANDNASGVSMLLEFAHYYMENPPEYSMLFIAFAGEESGLLGSSYFVAHPLVPLAGIHFLINLDLLGTGDDGIMVVNGSVFKPAYNRLIAINEEKKLLPAIKMRGEAANSDHYPFYKKGVPCFFIYTLGGVAAYHDVQDVAKTLPLTKYREVFQLIVLFNGEK”, which “soluble on expression in E. coli” value is on record?
Answer: not soluble

Question: With “MFVPLAMLAGMFSYYETFHETEALQDDLLRQAALYVAPDSKPETLPEGDGDTRIFVQMPQQEDPVVSLPAHLADGLHTLQADGDDDYYRVYIRTTEQGRIAVMQENEYREDLAADAARQSVLPLLAALPLMILLTVWITHKAMRPVRKLSQSLEQRRINDLSALSVDNIPSEIRGFVTAINLLLKRADEDIRHRQRFVADAAHELRTPMTALSLQAERLNNMSLPPDAARQPAVLQQSIRRNKHLLEQLLALARSQSDETPLTKTTFGLQSRFRQVLQELMPLALEKRQDIGVAVGGDVEVSADETEIYTLIKTFADNAVRYTPPEGRIDLGFTDEGKYLAVWVEDNGNGIPESERARVLDPFYRILGTEQQGTGLGLSIADTLAKKYGGHLELTDSRRFGHGLLIRALLDKETLK” as the sequence, how does the “soluble on expression in E. coli” value read?
Answer: not soluble

Question: Which “soluble on expression in E. coli” value does the source give for “MSLLNRLRAFRERGWREVDAPTYAQAWQRFGGSVATHPLVVEQLAEMAGIPVRYLGWESAGELVAAIPTWGRHLALSKDVLKRRGKKGLYDLGNAELILPVAGDARIALRHAGRYLSALHERNIVTLRPQTEQLAFARAPEDFSKKFRYNQRREVRLVEEAGGQVRQADSFAPAEFAAMYLELFQRRWGFPATGAERMAEVFERLRELLRGSVLLLNDQPIAVQVLYRAEAPGWLSVEYINGGVDPQTREFSPGSVLSYLNTQAAWEDARALGKPLRYSFGRADREYKDRWCHPSPVFQVEGHHHHHH” here?
Answer: soluble

Question: For “MSLAFKPARVIFEQDALKYPMGEKLYRFFRDKGTDVSFAASHNRVSAIPGRTRSEKYFEAKRTLVVGVRRTTAFETCKPSAHFQLPLATSCPGKCEYCYLLTNMGKKPYVRIYVNIEEILSAARGYIEDRKPQVTVFEGAATSDPVPVEPYTGALARAVEFFGGQEYGRFRFVTKFTEVDTLLDVPHNGHTRFRFSINTPEVIRRFEHATPPLAERLAAAWKVAAAGYPLGFLVAPIIMYDGWRDSYRDLFKTAAAGLNGKVYDLTFEFITHRFTKRAKGTILEVFPSTRLDMDEEARAFKFGQFGYGKYVYPKELFSDAKIYFEGLAGEYFPGSKVEYFVEGHHHHHH”, which “soluble on expression in E. coli” value is on record?
Answer: not soluble

Question: Which “soluble on expression in E. coli” value does the source give for “MSLVLAYYSGYAGNYAALTRYAASFNAVAVDFYNITAQGAVTGNGDPAPNDAISFLLGRKIPAYGCVSNVDGNGNWSADIAHAVSTSAQSQAVANLVKFAQDKRFSGINVDFEAVAQGDRNNFSHFIQVLGRALHAKGLKLIVSVPAFSAKDENHPANYGYDLRALGAAADYLQIMSYDEAIPAWDPGPVAGSDWMEDDLDYAVERVPAAKILNGIPAYGYDWKRPGDGGMLYWKDTQALIARYGAQPRYDAGTHSLTFNYGAADGSRHTVWTENARSVALKASLVNAYGLGGTSLYALGMEDEGHHHHHH” here?
Answer: soluble
